In the supplement of paper PMC10567573:

B1: C2orf65 (parent)
chain: QLDWDELETNQQHFHALCHSLLVS

Variants of: B1
Assay: protein stability index of a GFP-peptide fusion (GPS, HEK-293T) (PSI 1-6); higher = more stable
Conditions: c terminus: a fixed tail appended
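Note: lentivirally expressed fusions sorted by FACS into six bins by GFP to DsRed ratio, PSI derived from sequencing read proportions per bin multiplied by bin number.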

Protein stability index of substitutions, site by site:
F14: K 3.26; I 2.48; M 2.72; S 2.91; L 2.75; W 2.18; A 3.53; N 3.19; G 3.51; P 2.87; T 3.32; C 2.46; D 3.95; Q 3.42; H 2.67; E 3.58; R 2.44; Y 2.34; V 2.79
L7: I 1.82; D 3.63; W 1.33; Y 2.27; G 2.6; T 2.16; M 1.94; E 3.03; S 2.8; K 2.79; H 2.18; N 2.84; Q 2.79; A 2.33; C 2.5; V 2.36; F 2.13; P 2.84; R 2.16
E6: R 1.96; W 2.55; A 2.04; T 1.82; V 2.32; S 1.66; C 1.95; Q 1.84; M 1.83; G 2.13; K 1.46; D 1.9; I 1.81; N 1.79; H 1.57; Y 1.44; F 3.45; L 2.34; P 2.5
E8: H 1.95; A 1.57; L 2.31; D 2.11; N 2.07; W 2.9; Q 1.89; I 2.01; V 1.21; R 1.99; Y 1.87; T 1.61; C 1.59; S 1.67; F 1.57; M 2.73; K 1.39; G 1.64; P 1.87
N10: L 1; I 2.19; H 2.17; M 2.18; S 2.2; T 1.55; V 1.62; Q 2.07; F 1.69; A 2.04; P 2.31; R 2.81; K 2; C 1.76; D 2.87; E 2.33; G 2.82; Y 1.99; W 2.25
H13: M 1.65; K 2.02; P 2.63; T 2.51; Y 2.5; E 2.89; R 1.88; L 1.99; F 2.15; S 1.98; A 2.16; V 1.85; G 2.39; W 1.55; C 2.31; D 2.37; I 1.71; Q 2.36; N 2.35
A16: N 1.95; K 2.91; I 2.2; V 1.86; L 1.63; M 1.95; W 1.53; P 2.43; R 2.22; E 3.07; S 2.33; G 2.41; Y 3.02; D 2.58; Q 2.27; H 2.35; C 2.31; T 1.57; F 2.44
Q11: T 2.04; R 2.29; M 2.39; S 1.79; V 1.45; A 1.66; P 2.02; W 2.01; C 1.9; D 2.56; E 2.39; H 2.07; F 2.13; G 2.62; L 2.23; N 2.34; K 1.97; I 1.39; Y 1.39
L17: R 2.68; Y 2.05; S 2.58; G 2.43; I 2.14; E 3.69; H 2.6; P 3.92; Q 3.02; T 3.57; V 1.74; W 2.21; K 2.69; C 2.58; A 2.75; F 1.9; N 3.12; M 2.38; D 4.07
T9: G 2.07; E 2.88; A 2.71; F 1.8; H 2.54; C 2.21; P 1.91; D 2.39; Y 1.84; S 2.37; I 1.69; M 2.35; N 1.56; W 1.81; K 1.97; R 1.61; V 3.67; L 1.52; Q 2.75
W4: K 2.85; S 3.2; Q 3.35; R 2.77; P 2.02; N 2.78; M 2.98; T 3.14; V 3.11; I 3.03; Y 2.56; L 2.4
D5: F 2.47; G 2.07; Q 1.57; T 2.18; Y 2.31; M 1.95; E 2.54; C 1.55; I 1.58; R 1.95; K 2; L 1.22; A 2.01; W 1.18; S 1.83; H 2.04; N 1.49; P 2.34; V 1.66
C18: T 2.25; D 3.62; L 1.35; M 2.11; F 2.27; E 3.64; N 2.96; W 2.14; R 2.48; A 2.11; Q 2.76; Y 2.36; V 2.21; I 1.66; S 2.88; P 2.99; H 2.65; K 3.2; G 2.2
H19: M 1.66; V 1.96; Y 1.94; I 1.79; R 1.94; E 2.93; N 2.17; F 1.69; Q 2.67; L 1.04; C 2.21; A 1.88; G 2.17; W 1.04; P 2.65; K 2.15; S 2.07; T 2.02; D 2.94
L21: E 3.87; M 2.28; D 3.83; G 3.04; R 3.15; F 2.31; S 3.09; H 2.87; I 2.06; T 2.93; P 2.95; N 3.01; V 3.04; A 3.23; W 2.22; Q 2.91; K 2.94; C 1.61
H15: G 2.48; N 2.26; S 1.85; T 2.28; M 2.33; R 1.71; E 2.78; L 1.61; V 2.39; C 1.66; Q 1.72; Y 1.82; I 2.36; P 2.12; K 2.42; F 1.36; A 1.92; W 1.74; D 2.64
Q12: E 2.43; C 2.06; Y 1.48; N 2.1; M 1.83; P 2.73; R 2.37; H 1.92; A 1.84; W 2.6; L 1.67; S 2.62; D 2.37; I 2.55; K 1.84; G 2.69; F 1.45; T 2.13; V 2.17
S20: H 2.57; T 1.95; V 2.33; C 1.5; Y 2.05; W 1.9; K 2.04; A 1.79; I 2.13; Q 2.03; N 2.61; F 1.43; P 2.33; M 2.27; L 2.19; D 2.98; E 1.93; R 1.91; G 2.21
